We go through eleven sequences from the supplement of paper PMC9170038.

For the series, the system named is K4 kissing-loop RNA reporter. In words: apparent KD of K4 kissing-loop reporter; higher = weaker reporter binding. Conditions: Eterna round: R107. The method, then:
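RNA-MaP round R107: designed RNA switches with theophylline, tryptophan, arginine or FMN aptamers are transcribed on-chip within common flanks. They are titrated with a labelled K4 kissing-loop RNA reporter in RNA-MaP buffer (100 mM Tris pH 7.5, 80 mM KCl, 4 mM MgCl2), without ligand or with the indicated ligand. Median apparent KD per design.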

Where [1] appears, read: input ligand: theophylline 20 uM.
Setting [2] is: input ligand: tryptophan 2.4 mM.
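Note: bound reporter read as fluorescence of individual clusters on recovered sequencing chips by microscopy, with normalized cluster intensities fitted with a binding model.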

Consider “GCCGUAGAUUGAAGGAGCGUGGAACUAUGGCUUGAACAGUGAUGUUGUUUAUCUAGGUAGCCACAGGUAGGUCGCAAUCUACGGC”, for which the “apparent KD of K4 kissing-loop reporter” value turned out to be 0.266 µM (input ligand: FMN 200 uM); 0.201 µM (input ligand: arginine 13.2 mM); 0.234 µM (input ligand: none); 0.182 µM under setting [1]; 0.178 µM under setting [2].

Consider “GCCUACGAUGCAGGAUAUAGCUCGCGAGUGAUGUUCGCAGCUGUAUGGUAGUAAACUUCCACGUGUCUAGAAGGGCAUCGUAGGC”, for which the “apparent KD of K4 kissing-loop reporter” value reads like this: (input ligand: FMN 200 uM) 0.111 µM; (input ligand: arginine 13.2 mM) 0.0797 µM; (input ligand: none) 0.0916 µM; under setting [1], 0.08 µM; under setting [2], 0.0907 µM.

For “GCCUAGCAGGGAAGGAGCGCCAUAUAAUUAAAAGGUAAUUAAUGAGUGAUGUUCAAAUAAUGGCAGGUAGGUCGCCCUGCUAGGC [KL-SSArg B10]”, the “apparent KD of K4 kissing-loop reporter” value is, setting by setting: (input ligand: FMN 200 uM) 0.316 µM; (input ligand: arginine 13.2 mM) 0.277 µM; (input ligand: none) 0.283 µM; under setting [1], 0.354 µM; under setting [2], 0.283 µM.

Consider “GCGAACAUUCGCAGUGAUGUUGCGACGGAAGGAGCGCGUGAAAACGCAGGUAGGUCGCCGACAUACUUAAUUUUACAGUGUUCGC [Arginine A K4 29]”, for which the “apparent KD of K4 kissing-loop reporter” value was found to be 0.268 µM (input ligand: FMN 200 uM); 0.191 µM (input ligand: arginine 13.2 mM); 0.294 µM (input ligand: none); 0.247 µM under setting [1]; 0.194 µM under setting [2].

Regarding “GCGCGCGUUUUAGAUACCAGCCAGUGAUGUUGGCGAGGAUUCUGGAGCGUAGUGUCAAAUGGCCCUUGGCAGCUAACACGCGGCU [Zabea]”, the “apparent KD of K4 kissing-loop reporter” value was 0.117 µM (input ligand: FMN 200 uM); 0.108 µM (input ligand: arginine 13.2 mM); 0.119 µM (input ligand: none); 0.134 µM under setting [1]; 0.123 µM under setting [2].

As to “GCGCGGGAGUGAUGUUCCAAGUGGUGUUAACGAGGACCGGUACGGCCGCCACUCGAUACGGCCGGGCCGUAGGAUAAACUGGCGC [Same State - Tryptophan A (Freestyle 14)]”, the “apparent KD of K4 kissing-loop reporter” value runs as follows: (input ligand: FMN 200 uM) 0.405 µM; (input ligand: arginine 13.2 mM) 0.376 µM; (input ligand: none) 0.441 µM; under setting [1], 0.318 µM; under setting [2], 0.408 µM.

Regarding “GCGCGGGAGUGAUGUUCCAAGUGGUGUUAACGAGGACCGGUACGGCCGCCACUCGUUACGGCCGGGCCGUAGGAUACACUGGCGC [Same State - Tryptophan A (Freestyle 16)]”, the “apparent KD of K4 kissing-loop reporter” value was found to be 0.168 µM (input ligand: FMN 200 uM); 0.242 µM (input ligand: arginine 13.2 mM); 0.274 µM (input ligand: none); 0.471 µM under setting [1]; 0.415 µM under setting [2].

Turning to “GCGCGUCAUGUCAGCGGUGACACUGUCGAUACCAGCGCCGCAAGGCGCCCUUGGCAGCGACGCGCUGGAGUGAUGUUCCAGCGUG [#2 Exclusion - Theophylline A Attempt #14 (HarryS)]”, the “apparent KD of K4 kissing-loop reporter” value came to 0.154 µM (input ligand: FMN 200 uM); 0.148 µM (input ligand: arginine 13.2 mM); 0.164 µM (input ligand: none); 0.143 µM under setting [1]; 0.169 µM under setting [2].

Take “GCGCGUCAUGUCAGCGGUGCCUAUGUCGAUACCAGCGCCGCAAGGCGCCCUUGGCAGCGACGCGCUGGAGUGAUGUUCCAGCGUG [#2 Exclusion - Theophylline A Attempt #11 (HarryS)]”: the “apparent KD of K4 kissing-loop reporter” value reads like this: (input ligand: FMN 200 uM) 0.148 µM; (input ligand: arginine 13.2 mM) 0.127 µM; (input ligand: none) 0.153 µM; under setting [1], 0.138 µM; under setting [2], 0.132 µM.

For the sequence “GCGUAUGAUGCUCAAAGAGUAUCUCCCGAUACCAGUAUGGAAACAUACCCUUGGCAGCGGGUAACUGCCCAGUGAUGUUGGACGC [Theophylline A K4 9]”, the “apparent KD of K4 kissing-loop reporter” value is 0.43 µM (input ligand: FMN 200 uM); 0.253 µM (input ligand: arginine 13.2 mM); 0.351 µM (input ligand: none); 0.394 µM under setting [1]; 0.326 µM under setting [2].

In the case of “GCUACCUAUGCAGGAUAUGGUAUUACGAGUGAUGUUCGAGGCGAAUAGAGUGAUGUUCUAUUUCCACCAGAAGGGCAUAGGUAGC”, the “apparent KD of K4 kissing-loop reporter” value reads like this: (input ligand: FMN 200 uM) 0.143 µM; (input ligand: arginine 13.2 mM) 0.0971 µM; (input ligand: none) 0.125 µM; under setting [1], 0.137 µM; under setting [2], 0.124 µM.
